Laboratory results published in IntAct's records for PubMed 20511297.

B1: Fructokinase-like 2, chloroplastic (Arabidopsis thaliana (Mouse-ear cress)), F4I0K2 (parent)
chain: MASLSFTQFLSFPRCNADVPCLLQSHGFVKFRGERWNGKQSFSMAAGRRKLSESAPLEEEGNDGNGAVVGKKPSKSVKRTTKKKVVVKDEPLEEISEFLVDNDDVLDKESIVSALKPKKTRTRKKAAAASSDVEEVKTEKKVRRKRTVKKDKDVEDDLATIMDAEVSDVEEALAVESTDTESEEEEIDLSKHEGEDISHTYGWPPLVCCFGSAQHAFVPSGRPANRLLDYELHERMRDAKWAPEKYIRAPGGCAGGVAIALASLGGKVAFMGKLGADDYGQAMLYYLNVCKVQTRSVKIDGKRVTACSTMKISKRGRLKSTCIKPCAEDSLSKSEINVDVLKEAKMFYFSTHSLLDKKMMSTTIQAIKISKQLGNVIFYDLNLPLPLWHSSEETKSFIQEVWNLADVIEITKQELEFLCGIEPTEEFDTENNDISKFVHYPPETVEQLWHENLKVLFVTNGTSKIHYYTKEHNGAVSGMEDVPITPFTRDMSASGDGIVAGLIRMLTVQPDLMNNKGYLERTARYAIECGIIDQWLLAQTRGYPPKDDMEEEEDDEEEDEVESDPNGIRSITEKEYRTSKPYDEPDGPYVMKPVEEREYKKLELVGSMFEDGSL
partner: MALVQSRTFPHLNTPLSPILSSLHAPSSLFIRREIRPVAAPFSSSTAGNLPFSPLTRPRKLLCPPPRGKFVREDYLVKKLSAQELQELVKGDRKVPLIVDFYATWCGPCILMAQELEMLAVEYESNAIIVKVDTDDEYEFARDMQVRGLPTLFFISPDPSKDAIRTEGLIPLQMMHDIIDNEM
B2: Thioredoxin-like protein CITRX, chloroplastic (Arabidopsis thaliana (Mouse-ear cress)), Q9M7X9 (parent)
chain: B1 partner
partner: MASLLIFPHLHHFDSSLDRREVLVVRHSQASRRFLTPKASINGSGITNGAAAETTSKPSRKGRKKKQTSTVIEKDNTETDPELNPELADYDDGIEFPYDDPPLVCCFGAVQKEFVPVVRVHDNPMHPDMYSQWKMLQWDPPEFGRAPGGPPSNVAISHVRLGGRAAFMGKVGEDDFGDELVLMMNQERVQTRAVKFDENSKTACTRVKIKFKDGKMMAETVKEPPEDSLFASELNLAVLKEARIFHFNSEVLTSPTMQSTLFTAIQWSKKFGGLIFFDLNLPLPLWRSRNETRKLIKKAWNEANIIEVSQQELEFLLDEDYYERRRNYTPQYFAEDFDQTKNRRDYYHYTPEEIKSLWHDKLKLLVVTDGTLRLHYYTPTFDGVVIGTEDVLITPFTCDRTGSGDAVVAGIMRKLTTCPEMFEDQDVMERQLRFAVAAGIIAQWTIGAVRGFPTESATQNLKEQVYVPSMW
B3: Fructokinase-like 1, chloroplastic (Arabidopsis thaliana (Mouse-ear cress)), Q9M394 (parent)
chain: B2 partner
partner: B1 partner
B4: Thioredoxin-like protein CITRX, chloroplastic (Arabidopsis thaliana (Mouse-ear cress)), Q9M7X9 (parent)
chain: B1 partner
partner: B1 chain

Variants of: B1
Conditions: with citrx_arath CITRX, Q9M7X9

Row | Variant | effect of a mutation on the interaction
1 | C208A | decreasing interaction
2 | C209A | decreasing interaction
3 | C208A;C209A | disrupting interaction

Variants of: B2
Conditions: with sckl1_arath FLN1, Q9M394

Row | Variant | effect of a mutation on the interaction
4 | MALVQSRTFPHLNTPLSPILSSLHAPSSLFIRREIRPVAAPFSSSTAGNLPFSPLTRPRKLLCPPPRGKFVREDYLVKKLSAQELQELVKGDRKVPLIVDFYATWSGPCILMAQELEMLAVEYESNAIIVKVDTDDEYEFARDMQVRGLPTLFFISPDPSKDAIRTEGLIPLQMMHDIIDNEM [C106S] | decreasing interaction

Variants of: B3
Conditions: with citrx_arath CITRX, Q9M7X9

Row | Variant | effect of a mutation on the interaction
5 | MASLLIFPHLHHFDSSLDRREVLVVRHSQASRRFLTPKASINGSGITNGAAAETTSKPSRKGRKKKQTSTVIEKDNTETDPELNPELADYDDGIEFPYDDPPLVASFGAVQKEFVPVVRVHDNPMHPDMYSQWKMLQWDPPEFGRAPGGPPSNVAISHVRLGGRAAFMGKVGEDDFGDELVLMMNQERVQTRAVKFDENSKTACTRVKIKFKDGKMMAETVKEPPEDSLFASELNLAVLKEARIFHFNSEVLTSPTMQSTLFTAIQWSKKFGGLIFFDLNLPLPLWRSRNETRKLIKKAWNEANIIEVSQQELEFLLDEDYYERRRNYTPQYFAEDFDQTKNRRDYYHYTPEEIKSLWHDKLKLLVVTDGTLRLHYYTPTFDGVVIGTEDVLITPFTCDRTGSGDAVVAGIMRKLTTCPEMFEDQDVMERQLRFAVAAGIIAQWTIGAVRGFPTESATQNLKEQVYVPSMW [C105A;C106S] | disrupting interaction
6 | MASLLIFPHLHHFDSSLDRREVLVVRHSQASRRFLTPKASINGSGITNGAAAETTSKPSRKGRKKKQTSTVIEKDNTETDPELNPELADYDDGIEFPYDDPPLVCAFGAVQKEFVPVVRVHDNPMHPDMYSQWKMLQWDPPEFGRAPGGPPSNVAISHVRLGGRAAFMGKVGEDDFGDELVLMMNQERVQTRAVKFDENSKTACTRVKIKFKDGKMMAETVKEPPEDSLFASELNLAVLKEARIFHFNSEVLTSPTMQSTLFTAIQWSKKFGGLIFFDLNLPLPLWRSRNETRKLIKKAWNEANIIEVSQQELEFLLDEDYYERRRNYTPQYFAEDFDQTKNRRDYYHYTPEEIKSLWHDKLKLLVVTDGTLRLHYYTPTFDGVVIGTEDVLITPFTCDRTGSGDAVVAGIMRKLTTCPEMFEDQDVMERQLRFAVAAGIIAQWTIGAVRGFPTESATQNLKEQVYVPSMW [C106A] | decreasing interaction

Variants of: B4
Conditions: with sckl2_arath FLN2, F4I0K2

Row | Variant | effect of a mutation on the interaction
7 | MALVQSRTFPHLNTPLSPILSSLHAPSSLFIRREIRPVAAPFSSSTAGNLPFSPLTRPRKLLCPPPRGKFVREDYLVKKLSAQELQELVKGDRKVPLIVDFYATWSGPCILMAQELEMLAVEYESNAIIVKVDTDDEYEFARDMQVRGLPTLFFISPDPSKDAIRTEGLIPLQMMHDIIDNEM [C106S] | decreasing interaction
